Results on 17 sequences are retold here after the DeepSol protein solubility set.

A short description of this data set: soluble on expression in E. coli; label from the status in PepcDB or PDB records.
Turning to “MFSRRTTPSPSITTASSSTFSISNLTNNNATSTSDLPASAISNIVPQIPPTPRRVPPKIGLLRHLSGFLESKKDLMNDWEIGGTQNKWVCPSDRHLHLRAQLKSGWSVRTATARSPTNSKAQTGSITAAEQEHIQKVLAKAEESKSKEQQRIGKMVDRLEKMRRRATGNGVTHCLLCHTEFGLLASKSYAAMCVDCRKYVCQRNCGVETTDVNQTTGKVETVFLCKICSEAREVLWKKSGAWFYKEMPEFQRPDDRLPYYVPVTTNGTLPNASSAATPLSGTPGGAGPQPMTMPSTSSCQMTTPKWASPGVCNSPGLQMNGGPTSPLPNGTRRNTGHGGIEFPSSSRPSICSVLQAIEPLDRSKSPRPRIQPRWVNEKVMSSMSVDDEEKAASSSDGESFVQSGVPRRALNNKTPVGSTSATTSPAPPPTSTTPTSRREANMERFSRHTHAHANRLYSTDDDDDSSPESRPSTRSTSPRHSLATPSSYAHDTCHDTSLPDADTRSIDSGVVQSDHSNPQQSGLTCSSSSLTPLQQQASHDHHSGGGTPRRISNPDRTTSRVAQSASGTSLVTPPPPISSRTSPDNCNSSPLNVMEHKSSSASTASSGGNRRVGSAEPVLNNHHAMHNNQNHNDINKKLISQTSRAESPLAASSSFLSSPDDDTKQKNRRRDGVGRVNSLQLRTSLDDVAPPVAPISKMNGHIVSSEPTSSTTSNQNHTSVPIPTVPVVPEEEEEKAITASTESASEPGSLGSITLTLTYHSADKKLKMHLIRAKNLKAMDSNGFSDPYVKFHLLPGNTKATKLTSKTIEKTLNPEWNEEMSYYGITEDDKEKKILRVTVLDRDRIGSDFLGETRIALKKLNDNEMKKFNLYLESALPVPQQTKEEENEDRGKINVGLQYNIQQGSLFININRCVELVGMDSTGFSDPYCKVSLTPITSKAHRAKTSTKKRTLNPEWNEQLQFVVPFKDLPKKTLQIGVYDHDLGKHDDYIGGILLSTSAKDERGRQWIKCIENPGTLVEAWHRLELDS”, the “soluble on expression in E. coli” value is reported as “not soluble”.
To “MSQKEQIKTYKGPAGGWGALKAVTRSWWGSENAVKNIRTMLKTNQNGGFDCPGCAWGESPDSGKVNFCENGAKAVNWEATNRLVDPEFFANHSVSSLSTQTDYWLEYQG” belongs “not soluble”.
To “MGSDKIHHHHHHMENVPLLQVNKMSKAFSNQLVLKEVNLQVERGDIYALVGGNGAGKSTLMKILTGLYSYDDGEMYVKGTKQQFANPSEAHRKGIYLIPQEPLIFPHMTIEENICIGLTEKKKKLRVQIEQLINSLGWDIDLNELGGSLSIAQQQLVEIVRGLIREAEILILDEPTSTLTTHEIKSLFVLMKSLQEKGIGMIYITHRFPEIFEIANKVAILRDGMIVSQGDVCDYTYDMLMEGLLPKGYKQKEKIEVVQETARTKKILEVIDITSHAFKNISFTVHADEIVGVAGIIGSGRTELAEAIFGLKTIKSGSILLEGKSIDACSLHKRLEKGLVYVPEDRARNGIFSIASVKENIAAASLQQNNRFFINQEKESALVNSFIEQFRIVVQNMNEELVSLSGGNQQKVVLAKYLACNPKIIILDEPTRGIDAKARIEVYETIEKMKREGLAILLISSDVEEIVQLANRVYVMRNGRFVSYMEKEQLSVNEVTRLAYGGVAE” belongs “not soluble”; to “MAITIQNHELQVTLKALGATMTSITDSQGVEYLWQGDATYWGGQAPILFPICGSVRNDCVIYRPAQAPHFTGIIPRHGFVRHKTFDYDYISDSSVRFTIKSSKEMLINYPYRFSLEITYTLRNKSIAITYIVKNLESEKNMPYAIGAHPGFNCPLFEKEVFSDYYLEFEQFETCTIPESFPDTGLLDLQARHPFLENQKQLSLNHALFEKDAITLDQLRSKTVYLKSRNHAKGIQLDFDDFENLILWTSNNGGPFLALEPWSSLSTSIEESDILEDKQNIVRLNPKQSKQHSIRITILLEHHHHHH”, “soluble”.
With “AVVATKVGATVMNANPFTLGHRYLIEQALAQCDHLHLFVVEEEASQFCYQERFALVQHGIADLSNITLHPSSQYIISRATFPDYFLKDSHIVDAAYLELDLRLFRQHIAPALAITHRFIGTEPFCPVTAEYNRKMHYWLQQAVMEADAINVVEIERKKVSNQAISASTVRQLFSERKWQQLLSMVPITTFNFLQKIANEP” the entry was “not soluble”; with “MLKNTYIHIPGVGKALEQKIWASGIHTWDEFLEMEDRVLIPSVKKARICEGIKVSSSHLAAKDCFFFSQRLPSAEHWRAYSLFSDSVAFFDIETTGLSPCRDKITVVGIYNGNEVKTYVRGTNLEDLVEEFSRYRLLVSFNGARFDIPFIKSEFPEIEFKQLHIDLMYPLRRIGYGGGLKKIEKLLGICRSEDTDGMDGFDAVRLWKKYEKGDLEALNLLVKYNREDIVNLKTIIELTYPKMVENALKILEHHHHHH”, “not soluble”; with “MDRFELLGPLPREGTTTVLEASAGTGKTFALAGLVTRYLAETAATLDEMLLITFNRAASRELRERVRGQIVEAVGALQGDAPPSGELVEHLLRGSDAERAQKRSRLRDALANFDAATIATTHEFCGSVLKSLGVAGDNAADVELKESLTDLVTEIVDDRYLANFGRQETDPELTYAEALALALAVVDDPCAQLRPPDPEPGSKAAVRLRFAAEVLEELERRKGRLRAQGFNDLLIRLATALEAADSPARDRMRERWRIVLVDEFQDTDPMQWRVLERAFSRHSALILIGDPKQAIYGFRGGDIHTYLKAAGTADARYTLGVNWRSDRALVESLQTVLRDATLGHADIVVRGTDAHHAGHRLASAPRPAPFRLRVVKRHTLGYDGTAHVPIEALRRHIPDDLAADVAALLASGATFAGRPVVAADIAVIVEHHKDARACRNALAEAGIPAIYTGDTDVFASQAAKDWLCLLEAFDAPQRSGLVRAAACTMFFGETAESLAAEGDALTDRVAGTLREWADHARHRGVAAVFQAAQLAGMGRRVLSQRGGERDLTDLAHIAQLLHEAAHRERLGLPGLRDWLRRQAKAGAGPPEHNRRLDSDAAAVQIMTVFVAKGLQFPIVYLPFAFNRNVRSDDILLYHDDGTRCLYIGGKDGGAQRRTVEGLNRVEAAHDNLRLTYVALTRAQSQVVAWWAPTFDEVNGGLSRLLRGRRPGQSQVPDRCTPRVTDEQAWAVFAQWEAAGGPSVEESVIGARSSLEKPVPVPGFEVRHFHRRIDTTWRRTSYSDLVRGSEAVTVTSEPAAGGRADEVEIAVVAAPGSGADLTSPLAALPSGASFGSLVHAVLETADPAAPDLAAELEAQVRRHAPWWTVDVDHAQLAPELARALLPMHDTPLGPAAAALTLRQIGVRDRLRELDFEMPLAGGDLRGRSPDVSLADVGELLASHLPGDDPLSPYADRLGSAGLGDQPLRGYLAGSIDVVLRLPGQRYLVVDYKTNHLGDTAADYGFERLTEAMLHSDYPLQALLYVVVLHRFLRWRQRDYAPARHLGGVLYLFVRGMCGAATPVTAGHPAGVFTWNPPTALVVALSDLLDRGRLQS”, “soluble”.
Turning to “MCGIVGANSTRNVTNILIEGLKKLEYRGYDSAGLAIIDDKNNIDICKEVGKVIELEKSVHNLANFKGDIGIAHTRWATHGKPSKNNSHPHASESFCIVHNGVIENFAELKKVLINDGYKFKSDTDTEVIAHLLQKEWRDNFSIVDNIKYIMAMLKGAYAVAIISQKFSDKIVAVRSGSPLVIGVGIDENFISSDALSLLPVTNKFSYLDEGDIAIISKDNVEVFDNNGAAKNLEVEEYNYSSSSASKDGYKHYMLKEIYEQPEAVSNTILASLADGEISLDSFDKRAKELFEKTKHICIVACGTSYNAGMTAKYWIEKYAKVPCSVEIASEIRYRDNVVVDGSLFVSISQSGETADTLESLRKSKKQNYVGSMCICNVPNSSLVRESDIAFMTKAGVEIGVASTKAFTTQLVALAIFTLVIAKLKNSLTDQQIAKYTEELKNIRALVMGALKLDTEIDQISEYFSDKEHTIFLGRGLYYPIAIEGALKLKEISYIHAEAYPSGELKHGPLALVDKNMPIVAVVPNDELLDKTLSNLQEVHARGGKLILFVDKAVKERVNFDNSIVLELDAGHDFSAPVVFTIPLQLLSYHVAIIKGTDVDQPRNLAKSVTVE”, the “soluble on expression in E. coli” value was “not soluble”.
To “VFHPVECSYCHSESMMGFRYRCQQCHNYQLCQDCFWRGHAGGSHSNQHQMKEYTSW” belongs “soluble”; to “ARVNAQTGAPDILTSLDEKSVSYDTVMDKYWLSQYVIARETYDWYTLQKDYETVGMLSSPSEGQSYASQFQGDKALDKQYGSNVRTSVTIVSIVPNGKGIGTVRFAKTTKRTNETGDGETTHWIATIGYQYVNPSLMSESARLTNPLGFNVTSYRVDPEMGVVQ”, “soluble”; to “MFGNSYGGYLANLCAKIAPWSIDFILDNSSFVNLFGNIFRLIGFGKEIDFTRYHGTYDDTLFKNIFLYLSDKTYWNNNKFSKNYFSNARKIIREPLNKEHLIIQSLYPNPKYILYHSIFDERSPFKNKENFVHILKELNFKVEFFAISQVDNKFIKNLNHGMGLSTKLFFKKHLLQILKEPLQDKICKKEVSYKCDELVYTFKEENHQIILNITN”, “not soluble”.
With “MPGFAIGQTAYVVKTDSYRLLWDCITYLDETTIAKIKELGGLDAIALSHPHYYSTQVEWAETFDVPIYIHEDDKEWVMRPSSRIIYWSGESLQLADGITIHRLGGHFSGGSVLHWEEGNDGKGILLTGDIIQVVADERWVSFMYSYPNLIPLPARKVEEMVNRVKPLQFNRLYNAFHRVVKLEHHHHHH” the entry was “soluble”; with “MAIVSFKHKGLKLFYTTGSTKAIRPDHVKKLRVILTALTSATCPEMLKAPAFKMHPLKGELTGYYSIWVNGNWRVTFRFIGTDVELVDYQDYH”, “not soluble”.
In the case of “MGSDKIHHHHHHMKNSAPNKDGSIEANLTDLQVQTELYQWLSLVSHQRDKQAFTELFQFFAPKIKRFGMQRLGSNDKANELVQETMSNVWRKAHLYDGEKGAATTWVYTVMRNACFDMLRRIKTRNEQLLGDDIWPVEQALAENNPESETFSDHLMEQHMREHINKLPSSQQTVVKGVYFQSLSQEQLAQQLDVPLGTIKSRLRLALARLKLQMRDEYHD”, the “soluble on expression in E. coli” value is “not soluble”.
With “MSEGWNIAVLGATGAMGEALLETLAERQFPVGEIYALARNESAGEQLRFGGKTITVQDAAEFDWTQAQLAFFVAGKEATAAWVEEATNSGCLVIDSSGLFALEPDVPLVVPEVNPFVLTDYRNRNVIAVPDSLTSQLLAALKPLIDQGGLSRISVTSLISASAQGKKAVDALAGQSAKLLNGIPIDEEDFFGRQLAFNMLPLLPDSEGSVREERRIVDEVRKILQDEGLMISASVVQAPVFYGHAQMVNFEALRPLAAEEARDAFAQGEDIVLSEENEFPTQVGDASGTPHLSVGCVRNDYGMPEQVQFWSVADNVRFGGALMAVKIAEKLVQEYLY”, the “soluble on expression in E. coli” value is “not soluble”.
Regarding “MTHSLVCPETVSRVSSVLNRNTRQFGKKHLFDQDEETCWNSDQGPSQWVTLEFPQLIRVSQLQIQFQGGFSSRRGCLEGSQGTQALHKIVDFYPEDNNSLQTFPIPAAEVDRLKVTFEDATDFFGRVVIYHLRVLGEKV”, the “soluble on expression in E. coli” value is given as “soluble”.
To “MGSDKIHHHHHHMDYTRYVVQPGDSIYKIANAYKIEMSDIINLNHLKHPDRIYPGQILLLPTYEFKDTLPGEIPEPNFTYAMWLFDVYAGKDSELSAVTTYLYQAVVLDRPEFDELLRPIAYDELRHLEQLAWCIRFLGVDPRYGSFSKGRWFDWRSRYLNYSTELCVILDHNMKDEAAAVKHYTDLAQKIPIPEIQTILLQLAADEERHYQCLAQAKTRFCGCGSSQTQHIKESSNGEEL” belongs “not soluble”.
